Test results published in the supplement of paper PMC10567573.

B1: GAGE1 (parent)
chain: RPRRYVQPPEMIGPMRPEQFSDEV

Variants of: B1
Assay: protein stability index of a GFP-peptide fusion (GPS, HEK-293T) (PSI 1-6); higher = more stable
Details: c terminus: a fixed tail appended
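Further: lentivirally expressed fusions sorted by FACS into six bins by GFP to DsRed ratio, PSI derived from sequencing read proportions per bin multiplied by bin number.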

Protein stability index of substitutions, site by site:
E18: F 3.34 | R 3.57 | N 3.66 | A 3.81 | G 3.86 | I 3.13 | P 3.6
M15: V 4.49 | P 4.31 | Q 4.58 | H 3.69 | L 3.95 | S 4.84 | C 4.31
V6: I 3.94 | H 3.69 | W 3.18 | A 3.3 | R 3.6 | F 3.39 | E 3.92
E10: W 3.56 | M 4 | L 3.39 | C 3.13 | F 3.88 | D 4.51 | G 4.16 | R 4.39 | H 4.32 | I 3.69 | V 3.99
Q7: T 4.01 | M 3.52 | Y 3.73 | C 4.04 | F 3.87 | E 3.86 | R 3.29 | H 4.14 | V 3.57
P14: T 4.44 | N 4.2 | M 3.6 | A 4.38 | F 3.54
D22: C 3.14 | M 3.06 | R 3.5 | E 3.83 | V 2.9 | Q 3.11
Y5: E 4.55 | G 4.49 | Q 4.2 | W 3.61 | F 3.78 | T 4.45
R4: K 3.69 | D 4.46 | Q 4.66 | E 3.92 | V 3.89 | W 3.09 | L 4.04 | T 3.98 | I 3.43
P2: E 4.12 | C 2.99 | Q 3.45 | L 2.99 | T 3.33 | M 3.24 | Y 2.21 | I 2.5 | F 2.81 | S 3.92
R1: C 4.07 | V 3.59 | S 3.73 | E 4.23
V24: I 3.51 | T 4.17 | S 4.21 | F 2.74 | Y 3.94 | K 4.5 | W 4.01 | R 4.47
P17: C 3.79 | Y 3.36 | S 4.39 | Q 4.15 | G 4.55 | D 4.43 | W 3.66
I12: E 4.57 | D 4.72 | N 4.71 | C 4.33 | K 4.62 | V 4.77 | Y 3.91 | S 4.36
R3: L 2.88 | C 3.1 | A 3.74
R16: L 3.5 | K 3.94 | M 3.88 | G 4.17 | F 3.8 | D 3.84 | W 3.28
S21: A 3.69 | L 3.48 | G 4.17 | N 3.87 | E 3.73 | H 3.55 | C 4.15 | F 2.97 | R 4.11
P8: R 3.93 | Y 3.52 | G 4.51 | C 3.61 | K 3.98 | T 4.12 | D 4.31 | L 3.31 | E 4.54
G13: H 4.07 | C 3.96 | T 4.33
E23: P 3.63 | Y 2.76 | K 3.65 | A 3.59 | T 3.75
M11: N 3.38 | C 3.56 | W 3.91 | S 3.54 | A 4.34 | H 4.37
Q19: Y 3.92 | D 3.69 | H 3.62 | N 3.79 | E 3.51 | L 3.63 | T 4.09 | F 3.62 | C 4.16 | W 3.12
F20: Q 4.84 | W 3.94 | M 4.08 | A 4.98 | S 4.42 | L 4.5 | K 4.92
P9: V 2.61 | F 3.79 | R 4.36 | T 4.28
